Results from the supplement of paper PMC11908140.

B1: library; numbered along this chain (parent)
chain: MRKPRAAVGSGHRKQAASQEGRQKHAKNNSQAKPSACDGLARQPEEVVLQASVSSYHLFRDVAEVTAFRGSLLSWYDQEKRDLPWRRRAEDEMDLDRRAYAVWVSEVMLQQTQVATVINYYTGWMQKWPTLQDLASASLEEVNQLWAGLGYYSRGRRLQEGARKVVEELGGHMPRTAETLQQLLPGVGRYTAGAIASIAFGQATGVVDGNVARVLCRVRAIGADPSSTLVSQQLWGLAQQLVDPARPGDFNQAAMELGATVCTPQRPLCSQCPVESLCRARQRVEQEQLLASGSLSGSPDVEECAPNTGQCHLCLPPSEPWDQTLGVVNFPRKASRKPPREESSATCVLEQPGALGAQILLVQRPNSGLLAGLWEFPSVTWEPSEQLQRKALLQELQRWAGPLPATHLRHLGEVVHTFSHIKLTYQVYGLALEGQTPVTTVPPGARWLTQEEFHTAAVSTAMKKVFRVYQGQQPGTCMGSKRSQVSSPCSRKKPRMGQQVLDNFFRSHISTDAHSLNSAAQ

Variants of: B1
Assay: 8OG:A repair function score (normalized; synonymous = 0, nonsense = -1) (normalized log-likelihood score); higher = more repair activity (WT-like)
Conditions: with 8OG:A DNA repair reporter (GFP) in HEK-293 MUTYH KO cells
Summary of the method: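 Per-tile Rosace fitness scores were converted to a normalized repair function score anchored on synonymous and nonsense distributions. That scale puts synonymous medians at 0 and nonsense medians at -1. Variants with starting counts under 300 counts per million were discarded. Input came from sorting viable mCherry+ MUTYH knockout HEK-293 cells, carrying lentiviral MUTYH cDNA NNN codon-scan libraries in 10 pg/ml doxycycline and an 8OG:A GFP repair reporter, into GFP+ and GFP− bins at 72 h, three replicates per tile, followed by tile amplicon sequencing.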
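Further: cells sorted at 72 h after reporter transfection.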

First: A194V
Second: A194S
The “8OG:A repair function score” value of the first is lower: -0.443 for the first, -0.169 for the second.

Compared with L158T, W447D is lower in “8OG:A repair function score” value: -0.756 for the first, -1.18 for the second.

Compared with W447P, S55K is higher in “8OG:A repair function score” value: -0.941 for the first, 0.000876 for the second.

First: S55W
Second: D82S
The “8OG:A repair function score” value of the first is higher: -0.0142 for the first, -0.0969 for the second.

Compared with D300L, L313Y is higher in “8OG:A repair function score” value: -0.189 for the first, -0.104 for the second.

First: Q499A
Second: R246M
The “8OG:A repair function score” value of the first is higher: -0.02 for the first, -0.559 for the second.

Going from G475L to G475D, the “8OG:A repair function score” value falls from 0.0136 to -0.00652.

Going from Q310N to T122C, the “8OG:A repair function score” value falls from 0.00143 to -0.0157.

Going from A456H to E167T, the “8OG:A repair function score” value rises from -0.479 to 0.067.

Going from L149M to G236D, the “8OG:A repair function score” value rises from -0.664 to 0.156.

Compared with L411A, L411S is lower in “8OG:A repair function score” value: -0.00099 for the first, -0.29 for the second.

Compared with V65W, V65K is higher in “8OG:A repair function score” value: -0.114 for the first, 0.00609 for the second.

Compared with P404S, G368Y is lower in “8OG:A repair function score” value: -0.587 for the first, -0.663 for the second.

First: I198E
Second: I198S
The “8OG:A repair function score” value of the first is higher: -0.552 for the first, -0.757 for the second.

First: H508R
Second: S507Q
The “8OG:A repair function score” value of the first is higher: -0.0128 for the first, -0.0688 for the second.

Compared with S507Y, S384H is higher in “8OG:A repair function score” value: -0.141 for the first, -0.0587 for the second.

Going from E160G to N517W, the “8OG:A repair function score” value rises from -0.116 to -0.0342.

Going from V166Q to V166Y, the “8OG:A repair function score” value falls from -0.0914 to -0.184.

First: E285L
Second: A259F
The “8OG:A repair function score” value of the first is higher: -0.000221 for the first, -0.503 for the second.

First: V485L
Second: L134W
The “8OG:A repair function score” value of the first is higher: 0.0118 for the first, -0.665 for the second.

Going from D322F to T130A, the “8OG:A repair function score” value falls from -0.0672 to -0.214.

First: M462H
Second: W321E
The “8OG:A repair function score” value of the first is lower: -0.138 for the first, -0.0643 for the second.

Compared with T191K, T191Q is higher in “8OG:A repair function score” value: -1.26 for the first, -0.768 for the second.

First: T191S
Second: F466N
The “8OG:A repair function score” value of the first is lower: -0.16 for the first, -0.0913 for the second.

Going from G186L to L169V, the “8OG:A repair function score” value rises from -1.02 to -0.409.

First: L169M
Second: L169I
The “8OG:A repair function score” value of the first is higher: 0.0203 for the first, -0.337 for the second.

First: R98A
Second: R98D
The “8OG:A repair function score” value of the first is higher: -0.175 for the first, -0.438 for the second.

First: V427P
Second: V427T
The “8OG:A repair function score” value of the first is lower: -1.13 for the first, -0.409 for the second.

First: L392Y
Second: T406K
The “8OG:A repair function score” value of the first is lower: -0.624 for the first, 0.103 for the second.

Going from A36V to R266S, the “8OG:A repair function score” value falls from 0.0896 to -0.0823.

First: Y76K
Second: V102D
The “8OG:A repair function score” value of the first is lower: -1.41 for the first, -0.89 for the second.

Compared with R189E, P365M is higher in “8OG:A repair function score” value: -0.385 for the first, -0.184 for the second.

Going from P365V to N307E, the “8OG:A repair function score” value falls from 0.0242 to -0.0119.

Compared with Y151A, A519F is higher in “8OG:A repair function score” value: -0.816 for the first, 0.0212 for the second.

First: P339N
Second: P339C
The “8OG:A repair function score” value of the first is lower: -0.17 for the first, -0.157 for the second.

Going from L109M to L109G, the “8OG:A repair function score” value falls from -0.105 to -0.659.

First: V206F
Second: P331Y
The “8OG:A repair function score” value of the first is lower: -0.894 for the first, -0.276 for the second.

Compared with L370K, F376S is higher in “8OG:A repair function score” value: -0.936 for the first, -0.657 for the second.

Going from H514P to E140R, the “8OG:A repair function score” value falls from -0.00868 to -0.124.

Going from P264Q to K492N, the “8OG:A repair function score” value rises from -0.145 to -0.00159.

Going from K492D to K492S, the “8OG:A repair function score” value rises from -0.0117 to -0.0044.

First: Q43L
Second: F453I
The “8OG:A repair function score” value of the first is higher: 0.0948 for the first, -0.334 for the second.
